Changes are numbered by the printed parent chain.
T1: human IL-36R (IL1RL2) on primary human cells (human) (UniProt Q9HB29)
T1 sequence (looked up): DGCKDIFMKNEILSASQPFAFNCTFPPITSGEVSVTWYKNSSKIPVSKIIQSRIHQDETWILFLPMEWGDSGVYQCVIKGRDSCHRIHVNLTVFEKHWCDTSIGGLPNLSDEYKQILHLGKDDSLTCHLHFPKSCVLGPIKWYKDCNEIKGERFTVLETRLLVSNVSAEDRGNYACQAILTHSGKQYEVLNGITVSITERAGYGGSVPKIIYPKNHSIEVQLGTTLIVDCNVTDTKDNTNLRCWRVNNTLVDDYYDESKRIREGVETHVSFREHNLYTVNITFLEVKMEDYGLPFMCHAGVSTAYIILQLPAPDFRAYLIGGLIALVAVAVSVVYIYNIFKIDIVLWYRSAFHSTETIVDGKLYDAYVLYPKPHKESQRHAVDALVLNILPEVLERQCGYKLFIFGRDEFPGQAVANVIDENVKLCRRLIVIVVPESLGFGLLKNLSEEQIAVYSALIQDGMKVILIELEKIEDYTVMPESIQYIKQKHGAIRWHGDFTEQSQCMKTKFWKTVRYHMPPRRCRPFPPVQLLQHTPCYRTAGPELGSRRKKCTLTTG

B1: H4H14709P (antibody, human IgG4 S228P, kappa, V domains shown)
VH: EVQLVESGGGLVQPGGSLRLSCAASGFTFSDYAMSWVRQAPGKGLEWVSGISGNGGDTYYGDFVKGRFTISRDNSKNTLYLQMNSLRGEDTAAYFCVIDLDYWGQGTLVTVSS
VL: DIQMTQSPSTLSASEGDRVTITCRASQSISSWLAWYQQKPGKAPRLLIYKASILGDGVPSRFSGSGSGTEFTLTISSLQPDDFATYYCHQYNSYLWTFGQGTKVEIKR
B2: H4H14728P (antibody, human IgG4 S228P, kappa, V domains shown)
VH: QVQLQESGPGLVKPSQTLSLTCTVSGGSISSADYYWSWIRQHPGKGLEWIGSIYYTGSTYYNPSLKSRLTISIDTSENQFSLKLTSLTAADTAVYYCASEEANWGSHFDSWGQGTLVTVSS
VL: DIQMTQSPSSLSASVGDRVTITCRASQSIDNFLNWYQQKPGKAPKLLIYAASSLQSGVPSRFSGSGSGTDFTLTISSLQPEDFASYYCQHSHSAHPITFGQGTRLEIKR
B3: H4H14731P (antibody, human IgG4 S228P, kappa, V domains shown)
VH: QLQLQESGPGLVKPSETLSLTCTVSGGSISSSNYYWGWIRQPPGKRLEWIGSIYYSGSTYYNPSLKTRVTISVDTSKNQFSLKLTSVTAADTAVYYCAREEAAALTHFDFWGQGTLVTVSS
VL: B2 VL with D30S, F32Y, Y49F, S85T, A94S
B4: H4H14757P (antibody, human IgG4 S228P, kappa, V domains shown)
VH: EVQLVESGGGLVQPGRSLRLSCTASGFTFDDYAMHWVRQAPGKGLEWVSGIRWNGGSIGYVDSVKGRFTISRDNAKKSLHLQMNSLKTEDTALYYCAKDIGDILTGFYGEYGMDVWGQGTTVTVSS
VL: DIQMTQSPSSLSASEGDRVTITCRASQSISSYLNWYQQKAGKAPNLLIYAASSLQSGVPSRFSGSGSGTEYTLTISSLQPEDFATYYCQQSYIIPYTFGQGTKLEIKR
B5: H4H14758P (antibody, human IgG4 S228P, kappa, V domains shown)
VH: EVQLVESGGGLVQPGRSLRLSCAASGFTFDDYAMHWVRQAPGKGLEWVSSVRWNGGIIGYADSVKGRFTISRDNAKNSLYLQMNSLRPEDTALYYCAKDIGDVLTGYYGEYGMDVWGQGTTVTVSS
VL: B4 VL with E15V, T22A, S30T, S31T, A40P, N45K, E70D, Y71F, I94S
B6: H4H14700P2 (antibody, human IgG4 S228P, kappa, V domains shown)
VH: EVQLVESGGGLVQPGRSLRLSCAASGFTFDDYAMHWVRQTPGKGLEWVSVISWNSDVIAYSDSVKGRFTISRDNAKNSLYLQMNSLGTEDTALYYCAKGHNWNFFDYWGQGTLVTVSS
VL: EIVLTQSPATLSLSPGERATLSCRASQSVSSYLAWYQQKPGQAPRLLIYNVANRATDIPARFSGSGSGTDFTLTISGLEPEDFAVYFCQQRSNWPLTFGGGTKVEIKR
B7: H4H14708P2 (antibody, human IgG4 S228P, kappa, V domains shown)
VH: B6 VH with G10D, T40A, G87R, A97T, N101K, N103S
VL: B6 VL with V29I, Y49F, G77S, F87Y
B8: human IL-36β (ligand, UniProt Q9NZH7 5-157, looked up)
chain: REAAPKSYAIRDSRQMVWVLSGNSLIAAPLSRSIKPVTLHLIACRDTEFSDKEKGNMVYLGIKGKDLCLFCAEIQGKPTLQLKLQGSQDNIGKDTCWKLVGIHTCINLDVRESCFMGTLDQWGIGVGRKKWKSSFQHHHLRKKDKDFSSMRTN
B9: rhIL-36β/IL-1F8 [aa5-157] (ligand, human, UniProt Q9NZH7 5-157, looked up)
chain: B8 chain

What follows are binders tested against Macaca fascicularis IL-36R extracellular domain expressed with a C-terminal myc-myc-hexahistidine tag (Macaca fascicularis) (assay: SPR Biacore T200, mAb captured by anti-hFc, 25C, PBS-T pH 7.4).

| 100 nM mfIL-36R-MMH Bound (RU) | koff [s⁻¹] | t½ [min] | Binder |
| --- | --- | --- | --- |
| 57 | 0.000519 | 22 | B1 |
| 74 | 0.000544 | 21 | B2 |
| 36 | 0.00137 | 8 | B3 |
| 1 |  |  | B4 |
| 0 |  |  | B5 |
| 91 | 0.000821 | 14 | B6 |
| 57 | 0.000752 | 15 | B7 |

Each binder was assayed against Macaca fascicularis IL-36R on cells (Macaca fascicularis) (assay: cell-based or functional assay).
Macaca fascicularis IL-36R on cells (Macaca fascicularis), sequence (chain, as listed by the source): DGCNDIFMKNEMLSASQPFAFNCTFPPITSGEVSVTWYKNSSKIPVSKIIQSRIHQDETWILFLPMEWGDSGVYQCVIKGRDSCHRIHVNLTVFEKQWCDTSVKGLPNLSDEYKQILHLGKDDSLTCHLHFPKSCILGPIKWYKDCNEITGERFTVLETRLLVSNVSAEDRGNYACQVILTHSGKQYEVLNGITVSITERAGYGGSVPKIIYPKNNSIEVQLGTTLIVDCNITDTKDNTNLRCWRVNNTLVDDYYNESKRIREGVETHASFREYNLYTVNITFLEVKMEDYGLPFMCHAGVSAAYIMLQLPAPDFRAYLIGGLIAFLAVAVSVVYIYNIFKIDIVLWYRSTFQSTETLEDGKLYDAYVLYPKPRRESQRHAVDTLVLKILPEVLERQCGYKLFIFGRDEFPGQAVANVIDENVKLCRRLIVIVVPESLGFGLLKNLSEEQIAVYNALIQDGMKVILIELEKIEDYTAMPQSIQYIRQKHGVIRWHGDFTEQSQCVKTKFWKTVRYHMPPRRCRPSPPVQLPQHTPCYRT

| EC50, NFκB-luciferase, HEK293/NFκB-luc/MfIL-36R cells [nM] | Binder |
| --- | --- |
| 0.27 | B8 |

Each binder was assayed against full-length human IL-36R on cells (human) (UniProt Q9HB29) (assay: cell-based or functional assay).

| EC50, NFκB-luciferase, HEK293/NFκB-luc/hIL-36R cells [nM] | Binder |
| --- | --- |
| 0.014 | B8 |

The binders below were run against T1, human IL-36R (IL1RL2) on primary human cells (human) (assay: cell-based or functional assay).

| EC50[M], IL-8 production, Intestinal MyoFibroblasts (InMyoFib), hIL-36β [M] | EC50[M], IL-8 production, Normal Epidermal Keratinocytes (NHEK), hIL-36β [M] | EC50[M], IL-8 production, PB-derived CD14+ Monocytes, hIL-36β [M] | Binder |
| --- | --- | --- | --- |
| 1.18e-09 | 1.18e-09 | 2.63e-09 | B9 |

What follows are binders tested against Macaca fascicularis IL-36R extracellular domain expressed with a C-terminal myc-myc-hexahistidine tag (mfIL-36R-MMH) (Macaca fascicularis) (assay: SPR Biacore 4000, mAb captured on anti-hFc, 37C).

| 100 nM mfIL-36R-MMH Bound (RU) | Kd [nM] | koff [s⁻¹] | kon [M⁻¹ s⁻¹] | t1/2 [min] | Binder |
| --- | --- | --- | --- | --- | --- |
| 66 | 17.7 | 0.000871 | 49100 | 13 | B1 |
| 77 | 20.7 | 0.00134 | 64800 | 9 | B2 |
| 41 | 48.2 | 0.00322 | 66800 | 4 | B3 |
| 4 |  |  |  |  | B4 |
| -1 |  |  |  |  | B5 |
| 67 | 27.8 | 0.00198 | 71400 | 6 | B6 |
| 75 | 30.4 | 0.00181 | 59600 | 6 | B7 |

The binders below were run against Macaca fascicularis IL-36R extracellular domain expressed with a C-terminal myc-myc-hexahistidine tag (Macaca fascicularis) (assay: SPR Biacore T200, mAb captured by anti-hFc, 25C, PBS-T pH 6.0).

| 100 nM mfIL-36R-MMH Bound (RU) | koff [s⁻¹] | t½ [min] | Binder |
| --- | --- | --- | --- |
| 48 | 0.00112 | 10 | B1 |
| 68 | 0.000616 | 19 | B2 |
| 23 | 0.00152 | 8 | B3 |
| 1 |  |  | B4 |
| 1 |  |  | B5 |
| 80 | 0.00171 | 7 | B6 |
| 47 | 0.0015 | 8 | B7 |

These binders were tested against Macaca fascicularis IL-36R extracellular domain expressed with a C-terminal myc-myc-hexahistidine tag (Macaca fascicularis) (assay: SPR Biacore T200, mAb captured by anti-hFc, 37C, PBS-T pH 7.4).

| 100 nM mfIL-36R-MMH Bound (RU) | koff [s⁻¹] | t½ [min] | Binder |
| --- | --- | --- | --- |
| 92 | 0.000987 | 12 | B1 |
| 98 | 0.00139 | 8 | B2 |
| 43 | 0.00361 | 3 | B3 |
| 0 |  |  | B4 |
| 0 |  |  | B5 |
| 108 | 0.0018 | 6 | B6 |
| 66 | 0.00169 | 7 | B7 |

The binders below were run against full-length human IL-36R on cells (human) (UniProt Q9HB29) (assay: not given).

| EC50 (read off the curve) of hIL36β, NFκB-luciferase RLU, in the presence of 0.3 nM REGN6490 [nM] | EC50 (read off the curve) of hIL36β, NFκB-luciferase RLU, in the presence of 1 nM REGN6490 [nM] | EC50 (read off the curve) of hIL36β, NFκB-luciferase RLU, in the presence of 3 nM REGN6490 [nM] | EC50 (read off the curve) of hIL36β, NFκB-luciferase RLU, in the presence of 9 nM REGN6490 [nM] | EC50 (read off the curve) of hIL36β, NFκB-luciferase RLU, no antibody [nM] | Binder |
| --- | --- | --- | --- | --- | --- |
| 0.008 | 0.02 | 0.08 | 0.3 | 0.003 | B8 |

Biological target: full-length human IL-36R on cells (human) (UniProt Q9HB29)
Assay: not given
Remark: another data set of the same source

| EC50 (read off the curve) of hIL36β, NFκB-luciferase RLU, in the presence of 0.1 nM REGN6489 [nM] | EC50 (read off the curve) of hIL36β, NFκB-luciferase RLU, in the presence of 0.3 nM REGN6489 [nM] | EC50 (read off the curve) of hIL36β, NFκB-luciferase RLU, in the presence of 1 nM REGN6489 [nM] | EC50 (read off the curve) of hIL36β, NFκB-luciferase RLU, in the presence of 3 nM REGN6489 [nM] | EC50 (read off the curve) of hIL36β, NFκB-luciferase RLU, in the presence of 9 nM REGN6489 [nM] | EC50 (read off the curve) of hIL36β, NFκB-luciferase RLU, no antibody [nM] | Binder |
| --- | --- | --- | --- | --- | --- | --- |
| 0.005 | 0.01 | 0.03 | 0.1 | 0.3 | 0.002 | B8 |

These binders were tested against Macaca fascicularis IL-36R extracellular domain expressed with a C-terminal myc-myc-hexahistidine tag (Macaca fascicularis) (assay: SPR Biacore T200, mAb captured by anti-hFc, 37C, PBS-T pH 6.0).

| 100 nM mfIL-36R-MMH Bound (RU) | koff [s⁻¹] | t½ [min] | Binder |
| --- | --- | --- | --- |
| 80 | 0.00294 | 4 | B1 |
| 91 | 0.00191 | 6 | B2 |
| 40 | 0.00538 | 2 | B3 |
| -1 |  |  | B4 |
| 1 |  |  | B5 |
| 97 | 0.00333 | 3 | B6 |
| 58 | 0.0031 | 4 | B7 |

These binders were tested against Macaca fascicularis IL-36R extracellular domain expressed with a C-terminal myc-myc-hexahistidine tag (Macaca fascicularis) (assay: SPR (Biacore 4000), mAb captured on anti-human Fc, 25°C).

| 100 nM mfIL-36R-MMH Bound (RU) | Kd [nM] | koff [s⁻¹] | kon [M⁻¹ s⁻¹] | t½ [min] | Binder |
| --- | --- | --- | --- | --- | --- |
| 34 | 14.3 | 0.000401 | 28000 | 29 | B1 |
| 51 | 7.87 | 0.000406 | 51500 | 28 | B2 |
| 33 | 15.9 | 0.000951 | 59800 | 12 | B3 |
| 1 |  |  |  |  | B4 |
| -1 |  |  |  |  | B5 |
| 48 | 10.6 | 0.000635 | 60200 | 18 | B6 |
| 51 | 12.9 | 0.000579 | 45000 | 20 | B7 |

— patent US20200017592A1
